Holding throughout (experiment): cell-based or functional assay
The target of assay [1] is rhesus monkey prokineticin receptor 1 (PKR1) (rhesus monkey).
Assay [2] has as its target chimpanzee prokineticin receptor 2 (PKR2) (chimpanzee (Pan troglodytes)).
The target of assay [3] is squirrel monkey prokineticin receptor 2 (PKR2) (squirrel monkey).

Turning to “recombinant human PK2 (prokineticin 2) (from UniProt Q9HC23 28-129) (ligand)”, the calcium mobilization (aequorin luminescence) in transiently transfected CHO cells in assay [1] and in assay [2] was 10 nM each time. Take “recombinant human PK1 (prokineticin 1) (from UniProt P58294 20-101) (ligand)”: the calcium mobilization (aequorin luminescence) in transiently transfected CHO cells in assay [3] worked out at 10 nM.

The values are drawn from patent US20050143287A1.
